According to article PMC12152837, “Semaglutide Aggregates into Oligomeric Micelles and Short Fibrils in Aqueous Solution” (Biomacromolecules, 2025):
“And” between values parts separate entries of the source, which are not always exact repeats. Equal values may be shown once.

Key:
[1] = Nile red fluorescence assay of critical micelle concentration; format: physicochemical; conditions: 45-day aged sample in water, stored at 4 °C; 5 μM Nile red, λexc 550 nm, peak fluorescence intensity at 635 nm versus concentration
Experimental: Fluoroscence of tryptophan in semaglutide was excited at λexc= 295 nm, and fluorescence emission spectra were measured using a Cary Eclipse spectrofluorometer (Agilent, Didcot, UK) with excitation and emission slits of 5 nm. The spectra were recorded from 300 to 600 nm. The temperature was maintained at 20 °C during the measurements. This protocol was performed using fresh Semaglutide samples and then repeated using the same samples stored at 4 °C for 40 days, protected from the light. To determine the critical aggregation concentration (CAC) of semaglutide using Nile red, Semaglutide samples (45-day aged) were prepared in 5 μM of Nile red. The wavelength for excitation was set at λexc = 550 nm with 5 nm windows, and spectra were collected from 570 to 750 nm.
SI Fig.S13. Nile red fluorescence assay of critical micelle concentration (CMC) for a
45-day aged sample. (a) Plot of peak fluorescence intensity (l = 635 nm) versus
concentration, (b) Original fluorescence spectra.
Fluorescence Intensity (l635 nm)
Fluorescence intensity / arb. units […]

[2] = system: Caco-2 cells; assay: Transepithelial electrical resistance (TEER) transwell permeability assay; format: cell-based; conditions: Caco-2 monolayer on transwell, DMEM without serum, 37 °C, pH 7.4, duplicate wells, relative to DMEM control
Experimental: As a model of the gut epithelium, 1.5 × 10^5 Caco-2 (ATCC, EUA) immortalized colorectal adenocarcinoma cells were seeded into 12 mm Millicell hanging cell culture transwells, with a PET lower membrane permeated by pores 0.4 μm in diameter. The transwells were then inserted into a 12-well plate to create a bicameral chamber system separated by the transwell PET membrane. The cells were cultivated until reaching confluence in DMEM supplemented with 10% FBS for at least 3 weeks before starting the TEER assay in order to form semipermeable membranes composed of Caco-2 cells separating the two chambers. For the TEER assay, a multimeter (TLC Electrical, UK). The microelectrodes were immobilized in a chopstick pattern and coated in carbon conductive ink to prevent corrosion, similar to previous reports using low-cost Volt-ohmeters for TEER. −
The resistance for the Caco-2 membrane tissue (R tissue) is measured in Ohms (Ω) and defined as Rtissue=RTotal−RBlank
This represents the total resistance of the system containing the semipermeable membranes minus the initial resistance from the cell containing only media or PBS. […]
The area calculated for the transwells used in this assay is M Area (cm^2) = 1.12 cm^2. […] The TEER was calculated and is reported as % values relative to controls incubated without semaglutide.

[3] = Small-angle X-ray scattering (SAXS) of aggregates in water; format: physicochemical; conditions: for effective charge modulus per micelle z eff: Hayter–Penfold structure factor fit; for micelle inner core radius Ri / micelle outer radius Ro ± Gaussian polydispersity: core-shell sphere form factor
Experimental: (§1) Semaglutide powder was weighed, and the samples were prepared in glass vials using ultrapure water. To monitor the aggregation and stability, some samples were left to age up to 40 days in the fridge at 4 °C, protected from the light. The pH was observed just after preparation and after 40 days of incubation at 4 °C using pH strips due to the small volume of sample available. No evidence of microemulsion formation was observed. ^20 pH values were recorded as follows: 1 wt % fresh pH 5.5, 1 wt % aged: pH 7, 0.1 wt % fresh: pH 6.5, 0.1 wt % aged: pH 7. It is notable that the pH crosses the pK a of the N-terminal histidine (pK a = 6 is the accepted value for isolated histidine) for the more concentrated solution upon aging.
SAXS experiments were performed on beamline B21 at Diamond Light Source (Harwell, UK) and SWING at synchrotron SOLEIL (Gif-sur-Yvette, France) and on the labSAXS instrument at Diamond Light Source.
On B21, the sample solutions were loaded into the 96-well plate of an EMBL BioSAXS robot and then injected via an automated sample exchanger into a quartz capillary (1.8 mm internal diameter) in the X-ray beam. The quartz capillary was enclosed in a vacuum chamber to avoid parasitic scattering. After the sample was injected into the capillary and reached the X-ray beam, the flow was stopped during the SAXS data acquisition. Beamline B21 operates with fixed camera length (3.9 m) and fixed energy (12.4 keV). The images were captured by using a PILATUS 2 M detector. Data processing was performed using the dedicated beamline software ScÅtter. […]
SAXS experiments (extending to higher q) were also performed using a lab-based Xeuss 3.0 (Xenocs, France) instrument at Diamond Light Source, equipped with a liquid gallium MetalJet X-ray source (Excillum, Sweden) with an energy of 9.24 keV, corresponding to a wavelength of 1.34 Å. SAXS patterns were measured for 28800 s with an incident X-ray photon flux of roughly 4.06 × 10^6 ph/s on an EIGER2 R 1M detector (Dectris, Switzerland), and the sample-to-detector distance was set to 315 mm, giving a q range of 0.17–1.1 nm^–1. The beam size is roughly 0.4 × […] on the sample. The sample environment was a custom-designed low-noise flow-through cell having a thickness of roughly 0.7 mm and an area of 1.1 mm × 1.1 mm. The window material is silicon nitride. Silver behenate (layer spacing, d = 58.38 Å) was used to calibrate the SAXS data. SAXS images were analyzed using the IDL-based AXcess software package or software DAWN.
The association number of the micelle can be obtained in a model-independent fashion from the forward scattering intensity of the SAXS data in dilute solution. , The measured synchrotron SAXS data presented here is in absolute units (cm^–1) and the forward scattering (at q = 0) can be written as 1 I(0)=cmicMmic[r0vp(ρl−ρ0)]^2/NA Here, c mic is the concentration of micelles, M mic is the micelle molar mass, r 0 is the classical electron radius [0.28179 × 10^–12 cm e ^–1], v p is the partial specific volume, and ρl and ρ0 represent the lipopeptide and solvent (water) electron density. […] Rearranging eq gives 2 Mmic=I(0)NA/cmic[r0vp(ρl−ρ0)]^2 […]
Table S1. Fit parameters to the SAXS data in Fig.2b using a core-shell sphere form form factor with the Hayter-Penfold RMSA structure factor.1 The monodisperse approximation to factor the form and structure factors of isotropic solutions of centrosymmetric particles is assumed. Fitting performed using SASfit.2-3 […]
(Diamond synch.) (Diamond synch.) (Diamond synch.) (Lab SAXS)b […]
Key: Core-Shell Sphere Form factor: Ro: outer radius (σc Gaussian polydispersity in R0), Ri: inner radius, µ: ratio of scattering contrast of inner core/outer core, η: scattering contrast of core. Structure factor: RHS, hard sphere radius, φ: effective volume fraction zeff: effective charge modulus, I: ionic strength (temperature fixed at T = 293 K).
Gaussian coils: Rg: radius of gyration, Ic: intensity. Background: BG (constant). […]

[4] = Cryogenic-TEM imaging of aggregates; format: physicochemical
Experimental: Semaglutide powder was weighed, and the samples were prepared in glass vials using ultrapure water. […] The pH was observed just after preparation and after 40 days of incubation at 4 °C using pH strips due to the small volume of sample available. No evidence of microemulsion formation was observed. ^20 pH values were recorded as follows: 1 wt % fresh pH 5.5, 1 wt % aged: pH 7, 0.1 wt % fresh: pH 6.5, 0.1 wt % aged: pH 7. It is notable that the pH crosses the pK a of the N-terminal histidine (pK a = 6 is the accepted value for isolated histidine) for the more concentrated solution upon aging.
Imaging was carried out using a field emission cryo-electron microscope (JEOL JEM-3200FSC), operating at 200 kV. Images were taken in bright field mode and using zero loss energy filtering (omega type) with a slit width of 20 eV. Micrographs were recorded using a Gatan Ultrascan 4000 CCD camera. The specimen temperature was maintained at −187 °C during the imaging. Vitrified specimens were prepared by using an automated FEI Vitrobot device using Quantifoil 3.5/1 holey carbon copper grids with a hole size of 3.5 μm. Just prior to use, grids were plasma cleaned using a Gatan Solarus 9500 plasma cleaner and then transferred into the environmental chamber of a FEI Vitrobot at room temperature and 100% humidity. Thereafter, 3 μL of sample solution was applied on the grid, and it was blotted twice for 5 s and then vitrified in a 1/1 mixture of liquid ethane and propane at a temperature of −180 °C. The grids with vitrified sample solution were maintained at liquid nitrogen temperature and then cryo-transferred to the microscope.

[5] = pH of aqueous solutions (pH strips); format: physicochemical
Experimental: as §1

[6] = ESI-MS integrity and appearance of solution after aging; format: physicochemical
Experimental: Semaglutide was purchased from Bioserv (Calibre Scientific, Rotherham, UK). The purity by HPLC was >95%, and it was supplied in nonsalt (base) form. The molar mass is M = 4115.7 g mol^–1 (4113.6 g mol^–1 expected). Purity (by HPLC) is >98%.
as §1

[7] = 0.5 wt % in water, aged 40 days, Diamond synchrotron
[8] = 0.5 wt %, aged 40 days, Diamond synchrotron, fixed for the fits
[9] = 1 wt % in water, aged 40 days, Diamond synchrotron
[10] = 1 wt %, aged 40 days, Diamond synchrotron, fixed for the fits

Semaglutide
critical micelle concentration (CMC) [1]: 0.06 wt % and 0.06 ± 0.005 wt %
TEER, % of the initial TEER ([2]; aged (40 days, 4 °C) semaglutide 0.02 wt %, after 2–4 h): around 90%
TEER, % of the initial TEER ([2]; fresh semaglutide 0.02 wt %, after 30 min): around 80%
radius of gyration Rg (Gaussian coils) ([3]; 0.1 wt % in water, aged 40 days, Diamond synchrotron): 1.57 nm
micelle molar mass M mic ([3]; 0.1 wt % in water, aged 40 days, from SAXS forward scattering I(0) = 0.0025 cm^–1): 9111 g mol^–1
association number p ([3]; 0.1 wt % in water, aged 40 days, from SAXS forward scattering I(0), p = Mmic/Mmol): ≈ 2.2
hard sphere radii R HS from the structure factor ([3]; 0.5 and 1 wt % aged solutions): 2.23–2.54 nm
hard sphere radius RHS [3, 7]: 2.23 nm
effective charge modulus per micelle z eff [3, 7]: 9.81
micelle inner core radius Ri [3, 8]: 1.50 nm
micelle outer radius Ro ± Gaussian polydispersity [3, 8]: 2.31±0.59 nm
hard sphere radius RHS [3, 9]: 2.54 nm
effective charge modulus per micelle z eff [3, 9]: 10.8
association number p ([3]; 1 wt % in water, aged, rough estimate from the ratio of low-q intensity for 1 and 0.1 wt %): 12–15
hard sphere radius RHS ([3]; 1 wt %, Lab SAXS): 2.54 nm
radius of gyration Rg (additional Gaussian coil term) ([3]; 1 wt %, Lab SAXS, term for high q scattering): 0.8 nm
effective charge modulus per micelle z eff ([3]; 1 wt %, Lab SAXS): 9.00
micelle inner core radius Ri ([3]; 1 wt %, Lab SAXS): 1.50 nm
micelle outer radius Ro ± Gaussian polydispersity ([3]; 1 wt %, Lab SAXS): 2.31±0.59 nm
micelle inner core radius Ri [3, 10]: 1.50 nm
micelle outer radius Ro ± Gaussian polydispersity [3, 10]: 2.31±0.59 nm
micelle radius ([3]; as determined from cryo-TEM and SAXS, aged solutions at sufficiently high concentration): 2 nm
diameter of micelle-like structures ([4]; 1 wt % in water, aged 40 days at 4 °C, cryo-TEM): < 5 nm
morphology by cryo-TEM, further aging ([4]; 1 wt % sample aged 79 days, compared to the 40-day aged sample): no further change in morphology
morphology by cryo-TEM ([4]; freshly dissolved 1 wt % solution in water): irregular clustered morphology
pH of solution ([5]; 0.1 wt % in ultrapure water, aged 40 days at 4 °C): 7
pH of solution ([5]; 0.1 wt % in ultrapure water, fresh): 6.5
pH of solution ([5]; 1 wt % in ultrapure water, aged 40 days at 4 °C): 7
pH of solution ([5]; 1 wt % in ultrapure water, fresh): 5.5
chemical stability in solution (degradation) ([6]; aqueous solution, 40 days of aging at 4 °C protected from light, ESI-MS): No evidence for degradation in solution was observed
appearance of solutions ([6]; solutions in pure water prepared in glass vials): transparent
